Data published in patent publication US12338277.

Columns and labels:
Assay in all cases: cell-based or functional assay
[1] = target: HIV-1 Env of pseudovirus 0260.v5.c36 (HIV-1)
[2] = target: HIV-1 Env of pseudovirus 1394C9G1(Rev-) (HIV-1)
[3] = target: HIV-1 Env of pseudovirus 191821_E6_1 (HIV-1)
[4] = target: HIV-1 Env of pseudovirus 211-9 (HIV-1)
[5] = target: HIV-1 Env of pseudovirus 235-47 (HIV-1)
[6] = target: HIV-1 Env of pseudovirus 3103.v3.c10 (HIV-1)
[7] = target: HIV-1 Env of pseudovirus 3365.v2.c2 (HIV-1)
[8] = target: HIV-1 Env of pseudovirus 6480.v4.c25 (HIV-1)
[9] = target: HIV-1 Env of pseudovirus 6535.3 (HIV-1)
[10] = target: HIV-1 Env of pseudovirus AC10.0.29 (HIV-1)
[11] = target: HIV-1 Env of pseudovirus C2101.c01 (HIV-1)
[12] = target: HIV-1 Env of pseudovirus CNE17 (HIV-1)
[13] = target: HIV-1 Env of pseudovirus CNE52 (HIV-1)
[14] = target: HIV-1 Env of pseudovirus CNE58 (HIV-1)
[15] = target: HIV-1 Env of pseudovirus Ce703010054_2A2 (HIV-1)
[16] = target: HIV-1 Env of pseudovirus HIV-16845-2.22 (HIV-1)
[17] = target: HIV-1 Env of pseudovirus T251-18 (HIV-1)
[18] = target: HIV-1 Env of pseudovirus T278-50 (HIV-1)
[19] = target: HIV-1 Env of pseudovirus TRJO4551.58 (HIV-1)
[20] = target: HIV-1 Env of pseudovirus WEAU_d15_410_787 (HIV-1)
[21] = target: HIV-1 Env of pseudovirus X1254_c3 (HIV-1)
[22] = target: HIV-1 envelope of pseudovirus 1054_07_TC4_1499 (HIV-1)
[23] = target: HIV-1 envelope of pseudovirus 191821_E6_1 (HIV-1)
[24] = target: HIV-1 envelope of pseudovirus 231965.c01 (HIV-1)
[25] = target: HIV-1 envelope of pseudovirus 235-47 (HIV-1)
[26] = target: HIV-1 envelope of pseudovirus 263-8 (HIV-1)
[27] = target: HIV-1 envelope of pseudovirus 3016.v5.c45 (HIV-1)
[28] = target: HIV-1 envelope of pseudovirus 6535.3 (HIV-1)
[29] = target: HIV-1 envelope of pseudovirus 89-F1_2_25 (HIV-1)
[30] = target: HIV-1 envelope of pseudovirus 9004SS_A3_4 (HIV-1)
[31] = target: HIV-1 envelope of pseudovirus 928-28 (HIV-1)
[32] = target: HIV-1 envelope of pseudovirus C3347.c11 (HIV-1)
[33] = target: HIV-1 envelope of pseudovirus CAP45.2.00.G3 (HIV-1)
[34] = target: HIV-1 envelope of pseudovirus CNE30 (HIV-1)
[35] = target: HIV-1 envelope of pseudovirus Ce1176_A3 (HIV-1)
[36] = target: HIV-1 envelope of pseudovirus Du156.12 (HIV-1)
[37] = target: HIV-1 envelope of pseudovirus HIV-0013095-2.11 (HIV-1)
[38] = target: HIV-1 envelope of pseudovirus PVO.4 (HIV-1)
[39] = target: HIV-1 envelope of pseudovirus Q451.e2 (HIV-1)
[40] = target: HIV-1 envelope of pseudovirus Q769.d22 (HIV-1)
[41] = target: HIV-1 envelope of pseudovirus Q842.d12 (HIV-1)
[42] = target: HIV-1 envelope of pseudovirus THRO4156.18 (HIV-1)
[43] = target: HIV-1 envelope of pseudovirus WITO4160.33 (HIV-1)
[44] = target: HIV-1 envelope of pseudovirus X1632_S2_B10 (HIV-1)
[45] = target: HIV-1 envelope of pseudovirus YU-2 (HIV-1)
[46] = target: HIV-1 envelope of pseudovirus ZM197M.PB7 (HIV-1)
[47] = target: HIV-1 envelope of pseudovirus ZM247v1(Rev-) (HIV-1)
[48] = target: HIV-1 envelope spike of pseudovirus 6535.3 (HIV-1)
[49] = target: HIV-1 envelope spike of pseudovirus BaL.26 (HIV-1)
[50] = target: HIV-1 envelope spike of pseudovirus CAAN5342.A2 (HIV-1)

10-996 (antibody), sequence (VH): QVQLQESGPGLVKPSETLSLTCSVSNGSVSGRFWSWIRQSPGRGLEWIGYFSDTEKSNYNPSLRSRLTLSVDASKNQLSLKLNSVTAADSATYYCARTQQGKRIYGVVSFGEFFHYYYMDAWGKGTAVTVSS
10-996 (antibody), sequence (VL): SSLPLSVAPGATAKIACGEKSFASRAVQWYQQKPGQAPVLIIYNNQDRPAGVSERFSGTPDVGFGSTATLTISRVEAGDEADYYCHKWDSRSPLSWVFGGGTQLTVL

10-996 (antibody)
IC80 (TZM-bl neutralization) [1]: 0.436 µg/mL
IC80 (TZM-bl neutralization) [2]: 0.328 µg/mL
IC80 (TZM-bl neutralization) [3]: > 50 µg/mL
IC80 (TZM-bl neutralization) [4]: 3.85 µg/mL
IC80 (TZM-bl neutralization) [5]: 0.381 µg/mL
IC80 (TZM-bl neutralization) [6]: 0.15 µg/mL
IC80 (TZM-bl neutralization) [7]: 1.38 µg/mL
IC80 (TZM-bl neutralization) [8]: 0.049 µg/mL
IC80 (TZM-bl neutralization) [9]: 0.046 µg/mL
IC80 (TZM-bl neutralization) [10]: 0.25 µg/mL
IC80 (TZM-bl neutralization) [11]: > 50 µg/mL
IC80 (TZM-bl neutralization) [12]: 24.7 µg/mL
IC80 (TZM-bl neutralization) [13]: 43.8 µg/mL
IC80 (TZM-bl neutralization) [14]: 2.22 µg/mL
IC80 (TZM-bl neutralization) [15]: > 50 µg/mL
IC80 (TZM-bl neutralization) [16]: 9.93 µg/mL
IC80 (TZM-bl neutralization) [17]: 7.4 µg/mL
IC80 (TZM-bl neutralization) [18]: > 50 µg/mL
IC80 (TZM-bl neutralization) [19]: 7.27 µg/mL
IC80 (TZM-bl neutralization) [20]: 0.422 µg/mL
IC80 (TZM-bl neutralization) [21]: 0.42 µg/mL
IC50 (TZM-bl neutralization) [22]: 0.26 µg/mL
IC50 (TZM-bl neutralization) [23]: > 50 µg/mL
IC50 (TZM-bl neutralization) [24]: > 50 µg/mL
IC50 (TZM-bl neutralization) [25]: 0.128 µg/mL
IC50 (TZM-bl neutralization) [26]: 10.9 µg/mL
IC50 (TZM-bl neutralization) [27]: > 50 µg/mL
IC50 (TZM-bl neutralization) [28]: 0.017 µg/mL
IC50 (TZM-bl neutralization) [29]: > 50 µg/mL
IC50 (TZM-bl neutralization) [30]: 0.012 µg/mL
IC50 (TZM-bl neutralization) [31]: 1.33 µg/mL
IC50 (TZM-bl neutralization) [32]: > 50 µg/mL
IC50 (TZM-bl neutralization) [33]: > 50 µg/mL
IC50 (TZM-bl neutralization) [34]: 0.614 µg/mL
IC50 (TZM-bl neutralization) [35]: 0.043 µg/mL
IC50 (TZM-bl neutralization) [36]: 0.018 µg/mL
IC50 (TZM-bl neutralization) [37]: 31.5 µg/mL
IC50 (TZM-bl neutralization) [38]: 0.186 µg/mL
IC50 (TZM-bl neutralization) [39]: > 50 µg/mL
IC50 (TZM-bl neutralization) [40]: > 50 µg/mL
IC50 (TZM-bl neutralization) [41]: > 50 µg/mL
IC50 (TZM-bl neutralization) [42]: > 50 µg/mL
IC50 (TZM-bl neutralization) [43]: 0.538 µg/mL
IC50 (TZM-bl neutralization) [44]: > 50 µg/mL
IC50 (TZM-bl neutralization) [45]: 0.256 µg/mL
IC50 (TZM-bl neutralization) [46]: > 50 µg/mL
IC50 (TZM-bl neutralization) [47]: 0.055 µg/mL
IC50 (TZM-bl neutralization assay) [48]: 0.018 µg/mL
IC80 (TZM-bl neutralization assay) [48]: 0.085 µg/mL
IC50 (TZM-bl neutralization assay) [49]: 0.045 µg/mL
IC80 (TZM-bl neutralization assay) [49]: 0.228 µg/mL
IC50 (TZM-bl neutralization assay) [50]: 0.007 µg/mL
IC80 (TZM-bl neutralization assay) [50]: 0.06 µg/mL
